Measured values reported in PMC11479839.
Like-named read-outs stand apart in the source and are kept apart here.

Legend:
[1] = biological target: T1, N-myc;MAX (human;human, UniProt P04198;P61244 1-464;1-160, |); experiment: fluorescence anisotropy
[2] = biological target: T1, N-myc;MAX; experiment: fluorescence anisotropy; remark: listed apart in the source

T1 sequence (P04198 whole entry, chain 1 of 2): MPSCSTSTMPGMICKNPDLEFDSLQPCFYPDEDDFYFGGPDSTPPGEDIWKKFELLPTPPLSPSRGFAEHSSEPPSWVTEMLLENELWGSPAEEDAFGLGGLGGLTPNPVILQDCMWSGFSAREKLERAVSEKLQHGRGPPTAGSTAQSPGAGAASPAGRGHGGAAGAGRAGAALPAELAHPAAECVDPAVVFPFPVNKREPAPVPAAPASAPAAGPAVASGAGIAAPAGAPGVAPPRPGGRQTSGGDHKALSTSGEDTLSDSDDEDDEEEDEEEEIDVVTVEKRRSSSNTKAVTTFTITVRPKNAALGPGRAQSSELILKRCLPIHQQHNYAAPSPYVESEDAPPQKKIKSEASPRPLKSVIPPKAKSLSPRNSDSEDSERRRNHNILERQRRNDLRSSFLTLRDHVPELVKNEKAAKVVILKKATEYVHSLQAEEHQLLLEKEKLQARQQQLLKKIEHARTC
T1 sequence (P61244 whole entry, chain 2 of 2): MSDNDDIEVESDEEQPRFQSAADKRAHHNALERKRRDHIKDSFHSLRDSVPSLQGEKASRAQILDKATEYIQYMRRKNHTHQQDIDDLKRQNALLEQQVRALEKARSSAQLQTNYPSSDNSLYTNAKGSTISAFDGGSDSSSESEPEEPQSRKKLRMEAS

Row | Binder | Kd [1] | Kd [2]
1 | 1 NC Ebox CATATG (table: NC Ebox-TC; text: NCE-TA) (dsDNA) DNA 1: AGCTTAACTGACCATATGGTCAACTA DNA 2: TAGTTGACCATATGGTCAGTTAAGCT | ~735 nM | 
2 | 1Ebox (dsDNA) DNA 1: AGCTTAACTGACCACGTGGTCAACTA DNA 2: TAGTTGACCACGTGGTCAGTTAAGCT |  | ~150 nM
3 | 1 NC Ebox CATCTG (table: NC Ebox-TA; text: NCE-TC) (dsDNA) DNA 1: AGCTTAACTGACCATCTGGTCAACTA DNA 2: TAGTTGACCAGATGGTCAGTTAAGCT | ~655 nM | 
